This note sets out measurements from patent US20220307010A1 (published 2022).

B1: hTIGIT (receptor)
chain: MMTGTIETTGNISAEKGGSIILQCHLSSTTAQVTQVNWEQQDQLLAICNADLGWHISPSFKDRVAPGPGLGLTLQSLTVNDTGEYFCIYHTYPDGTYTGRIFLEVLESSVAEHGARFQIP
modifications: biotinylated antigen (site not given)
As for B1, the Kd (in general, the equilibrium constant for the complex coming apart) with TIGIT55-14 came out at 139 nM; in the assay with TIGIT55-11, 327 nM; with TIGIT55-05, 97.6 nM; in the assay with TIGIT55-06, 153 nM; in the assay with TIGIT55-01, 15.9 nM; with TIGIT55-08, 113 nM. This molecule also had a dissociation constant Kd with TIGIT55-13 of 112 nM.
